# Measured values published in patent US20170369592A1, “NOVEL ANTI-FIBROBLAST ACTIVATION PROTEIN (FAP) ANTIBODIES AND USES DERIVED THEREOF” (Mabimmune Diagnostics AG, priority 2015, published 2017).
# B1: NI-206.82C2: recombinant human memory B cell-derived monoclonal anti-FAP IgG1 antibody, variable regions in FIG. 1A, FAP inhibitory (antibody, V domains shown)
# VH: QVQLQQSGPGLVKPSQTLSLTCAISGDSVSSNSVTWNWIRQSPSRGLEWLGRTYYRSKWYNDYAVSVKGRITINPDTSKNQFYLQLKSVTPEDAAVYYCARDSSILYGDYWGQGTLVTVSS
# VL: QAVLTQPSSLSASPGASASLTCTLPSGINVGTYRIFWFQQKPGSPPQYLLSYKSDSDNHQGSGVPSRFSGSKDASANAGILLISGLQSEDEADYYCMIWHSSAWVFGGGTKLTVL
# Test system: 4T1 breast tumor
# Assay: In-vivo fluorescence imaging in 4T1 breast tumor bearing Balb/c mice
# Conditions: fluorescently labeled antibody, tumor mouse model
# Protocol: These antibodies are designated as A680-82C2 (Alexa 680 labelled 82C2) and A680-43A11 (Alexa 680 labelled 43A11).
# A murine cancer model was generated by the injection of 100′000 4T1 cultured breast tumor cells orthotopically into the 2nd left breast of Balb/c immunocompetent mice and allowed to grow for 7 days. Prior to in vivo imaging, the animals were shaved and de-epilated to remove fur for minimal absorbance and scattering of the incident optical light. In-vivo imaging was performed with the Maestro 500 imaging system (Cambridge Research Inc, Woburn, USA). For A680-82C2 detection, a band pass filter from 615 nm-665 nm and a highpass filter over 700 nm were used for excitation and emission light respectively, and fluorescence was detected by a CCD camera (cooled to 11° C.). A series of images were acquired at different wavelengths and then subjected to spectral unmixing (deconvolution of collected optical spectra; this enabled the unmixing of the Alexa680 fluorescence pattern from tissue auto-fluorescence and other spectral contributions).
# The 4T1-breast tumor bearing Balb/c mice (3-4 in each group) were then injected on day 7 after innoculation with 2 mg/kg of A680-82C2 or A680-43A11. Whole mice images were acquired at the following timepoints: before antibody injection, immediately after antibody injection, 6h, 24h, 48h, and 6d after antibody injection.
molecule,measurement,value
B1,antibody concentration after 6 d post antibody injection,almost zero
